From PMC4966837 (mAbs, 2015)

Biological target: human βc receptor on cells (TF-1 cells, human neutrophils, human eosinophils) (Homo sapiens, UniProt P32927)
Experiment: radioligand binding

Sequence of human βc receptor on cells (TF-1 cells, human neutrophils, human eosinophils) (P32927 17-897): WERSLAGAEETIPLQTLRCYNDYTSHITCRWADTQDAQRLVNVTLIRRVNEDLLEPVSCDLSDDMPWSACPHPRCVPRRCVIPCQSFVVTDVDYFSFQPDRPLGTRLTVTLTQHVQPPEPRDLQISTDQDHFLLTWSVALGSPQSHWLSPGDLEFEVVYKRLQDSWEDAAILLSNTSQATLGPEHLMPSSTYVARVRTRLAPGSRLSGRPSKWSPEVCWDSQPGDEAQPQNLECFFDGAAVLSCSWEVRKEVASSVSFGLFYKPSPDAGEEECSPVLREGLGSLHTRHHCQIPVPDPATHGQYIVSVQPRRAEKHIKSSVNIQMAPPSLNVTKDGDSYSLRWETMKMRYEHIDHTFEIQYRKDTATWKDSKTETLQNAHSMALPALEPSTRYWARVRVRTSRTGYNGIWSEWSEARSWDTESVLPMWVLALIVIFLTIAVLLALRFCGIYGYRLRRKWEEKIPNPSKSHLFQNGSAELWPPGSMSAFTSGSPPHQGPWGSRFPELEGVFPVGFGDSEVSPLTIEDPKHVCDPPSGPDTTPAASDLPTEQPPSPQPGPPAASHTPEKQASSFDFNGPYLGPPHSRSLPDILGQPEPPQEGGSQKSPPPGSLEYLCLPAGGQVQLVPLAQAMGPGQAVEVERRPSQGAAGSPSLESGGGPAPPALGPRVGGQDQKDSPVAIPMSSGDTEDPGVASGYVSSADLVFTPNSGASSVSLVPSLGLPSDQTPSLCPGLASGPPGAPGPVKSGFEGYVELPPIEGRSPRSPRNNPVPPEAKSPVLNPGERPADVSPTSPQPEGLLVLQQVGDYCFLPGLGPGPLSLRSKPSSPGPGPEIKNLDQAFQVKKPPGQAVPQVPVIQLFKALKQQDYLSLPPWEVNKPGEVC

B1: CSL311 (human IgG4-kappa monoclonal antibody) (antibody, V domains shown)
VH: EVQLLESGGGLVQPGGSLRLSCAASGFTFPWYRVHWVRQAPGKGLEWVSSIRSSGGFPYYNYKVKGRFTISRDNSKNTLYLQMNSLRAEDTAVYYCARFYDSFFDIWGQGTMVTVSS
VL: DIQMTQSPSSVSASVGDRVTITCRASQGISSWLAWYQQKPGKAPKLLIYAASSLQSGVPSRFSGSGSGTDFTLTISSLQPEDFATYYCQQANSFPITFGQGTRLEIK
Kd: 0.25 to 0.73 nM

B2: CSL311 Fab fragment (Fab, V domains shown)
VH: EVQLLESGGGLVQPGGSLRLSCAASGFTFPWYRVHWVRQAPGKGLEWVSSIRSSGGFPYYNYKVKGRFTISRDNSKNTLYLQMNSLRAEDTAVYYCARFYDSFFDIWGQGTMVTVSS
VL: DIQMTQSPSSVSASVGDRVTITCRASQGISSWLAWYQQKPGKAPKLLIYAASSLQSGVPSRFSGSGSGTDFTLTISSLQPEDFATYYCQQANSFPITFGQGTRLEIK
Kd: 0.38 to 0.67 nM
